Experiment [1] addresses human ENPP1 on the cell surface (293T-ENPP1 cells, HepG2 cells) (human) (UniProt P22413). In words: flow cytometry on HepG2 cells, APC-A against SSC-A. (In general: In flow cytometry, cells or beads pass a laser one at a time.)
Experiment [2] shares this target. Nature of the experiment: flow cytometry on 293T-ENPP1 cells, APC-A against SSC-A.

Sequence of human ENPP1 on the cell surface (293T-ENPP1 cells, HepG2 cells) (human) (P22413 whole entry): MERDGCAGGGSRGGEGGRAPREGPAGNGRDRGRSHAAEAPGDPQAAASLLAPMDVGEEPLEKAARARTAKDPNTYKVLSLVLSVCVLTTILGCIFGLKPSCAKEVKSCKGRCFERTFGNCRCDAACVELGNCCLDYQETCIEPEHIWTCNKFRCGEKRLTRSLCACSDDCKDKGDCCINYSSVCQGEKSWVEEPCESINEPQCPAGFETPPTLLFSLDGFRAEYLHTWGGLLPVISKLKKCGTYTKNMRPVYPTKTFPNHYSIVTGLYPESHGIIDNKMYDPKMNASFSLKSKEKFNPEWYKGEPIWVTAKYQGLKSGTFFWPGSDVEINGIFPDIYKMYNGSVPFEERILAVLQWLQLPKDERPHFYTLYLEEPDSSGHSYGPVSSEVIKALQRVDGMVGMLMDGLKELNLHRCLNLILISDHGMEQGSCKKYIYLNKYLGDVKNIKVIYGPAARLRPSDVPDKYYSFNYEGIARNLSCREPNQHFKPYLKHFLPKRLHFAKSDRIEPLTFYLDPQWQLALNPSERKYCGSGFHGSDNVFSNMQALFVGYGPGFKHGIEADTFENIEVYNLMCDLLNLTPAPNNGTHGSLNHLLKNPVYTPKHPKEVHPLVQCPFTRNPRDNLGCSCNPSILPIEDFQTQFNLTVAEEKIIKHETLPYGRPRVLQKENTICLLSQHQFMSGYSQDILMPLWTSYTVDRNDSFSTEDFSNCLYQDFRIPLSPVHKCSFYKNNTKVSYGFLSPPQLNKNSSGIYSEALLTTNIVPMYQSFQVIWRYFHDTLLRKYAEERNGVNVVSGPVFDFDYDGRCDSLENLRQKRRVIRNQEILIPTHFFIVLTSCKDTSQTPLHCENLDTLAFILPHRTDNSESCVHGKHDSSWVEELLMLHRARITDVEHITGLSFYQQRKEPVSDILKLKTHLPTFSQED

Consider Isotype Ctrl (antibody), for which the percent of cells in the APC-positive gate in experiment [1] and in experiment [2] was 0.4% throughout.

The record behind these values is patent publication US20250177530A1, “MOLECULES THAT BIND TO ENPP1 POLYPEPTIDES” (UNIVERSITY OF PITTSBURGH - OF THE COMMONWEALTH SYSTEM OF …, priority 2022, published 2025).
